Reference: patent US20110263454A1, “Methods of Identifying Functional Characteristics of Promoters, Transcription Modifying Proteins and Transcription Modulating Agents” (Salk Institute for Biological Studies, priority 2008, published 2011)

B1: NR4a3: NR4a3 (NR4A3; NOR1), nuclear hormone receptor cDNA driver (protein, UniProt Q92570 1-626, looked up)
Nuclear receptor subfamily 4 …: MPCVQAQYSPSPPGSSYAAQTYSSEYTTEIMNPDYTKLTMDLGSTEITATATTSLPSISTFVEGYSSNYELKPSCVYQMQRPLIKVEEGRAPSYHHHHHHHHHHHHHHQQQHQQPSIPPASSPEDEVLPSTSMYFKQSPPSTPTTPAFPPQAGALWDEALPSAPGCIAPGPLLDPPMKAVPTVAGARFPLFHFKPSPPHPPAPSPAGGHHLGYDPTAAAALSLPLGAAAAAGSQAAALESHPYGLPLAKRAAPLAFPPLGLTPSPTASSLLGESPSLPSPPSRSSSSGEGTCAVCGDNAACQHYGVRTCEGCKGFFKRTVQKNAKYVCLANKNCPVDKRRRNRCQYCRFQKCLSVGMVKEVVRTDSLKGRRGRLPSKPKSPLQQEPSQPSPPSPPICMMNALVRALTDSTPRDLDYSRYCPTDQAAAGTDAEHVQQFYNLLTASIDVSRSWAEKIPGFTDLPKEDQTLLIESAFLELFVLRLSIRSNTAEDKFVFCNGLVLHRLQCLRGFGEWLDSIKDFSLNLQSLNLDIQALACLSALSMITERHGLKEPKRVEELCNKITSSLKDHQSKGQALEPTESKVLGALVELRKICTLGLQRIFYLKLEDLVSPPSIIDKLFLDTLPF
B2: DAX-1: DAX1 (NR0B1), cDNA driver (protein, UniProt P51843 1-470, looked up)
Nuclear receptor subfamily 0 …: MAGENHQWQGSILYNMLMSAKQTRAAPEAPETRLVDQCWGCSCGDEPGVGREGLLGGRNVALLYRCCFCGKDHPRQGSILYSMLTSAKQTYAAPKAPEATLGPCWGCSCGSDPGVGRAGLPGGRPVALLYRCCFCGEDHPRQGSILYSLLTSSKQTHVAPAAPEARPGGAWWDRSYFAQRPGGKEALPGGRATALLYRCCFCGEDHPQQGSTLYCVPTSTNQAQAAPEERPRAPWWDTSSGALRPVALKSPQVVCEAASAGLLKTLRFVKYLPCFQVLPLDQQLVLVRNCWASLLMLELAQDRLQFETVEVSEPSMLQKILTTRRRETGGNEPLPVPTLQHHLAPPAEARKVPSASQVQAIKCFLSKCWSLNISTKEYAYLKGTVLFNPDVPGLQCVKYIQGLQWGTQQILSEHTRMTHQGPHDRFIELNSTLFLLRFINANVIAELFFRPIIGTVSMDDMMLEMLCTKI
B3: SHP: Small Heterodimer Partner (NR0B2), cDNA driver (protein, UniProt Q15466 1-257, looked up)
Nuclear receptor subfamily 0 …: MSTSQPGACPCQGAASRPAILYALLSSSLKAVPRPRSRCLCRQHRPVQLCAPHRTCREALDVLAKTVAFLRNLPSFWQLPPQDQRRLLQGCWGPLFLLGLAQDAVTFEVAEAPVPSILKKILLEEPSSSGGSGQLPDRPQPSLAAVQWLQCCLESFWSLELSPKEYACLKGTILFNPDVPGLQAASHIGHLQQEAHWVLCEVLEPWCPAAQGRLTRVLLTASTLKSIPTSLLGDLFFRPIIGDVDIAGLLGDMLLLR
B4: GCNF: Germ Cell Nuclear Factor (NR6A1, GCNF1), cDNA driver (protein, UniProt Q15406 1-480, looked up)
Nuclear receptor subfamily 6 …: MERDEPPPSGGGGGGGSAGFLEPPAALPPPPRNGFCQDELAELDPGTISVSDDRAEQRTCLICGDRATGLHYGIISCEGCKGFFKRSICNKRVYRCSRDKNCVMSRKQRNRCQYCRLLKCLQMGMNRKAIREDGMPGGRNKSIGPVQISEEEIERIMSGQEFEEEANHWSNHGDSDHSSPGNRASESNQPSPGSTLSSSRSVELNGFMAFREQYMGMSVPPHYQYIPHLFSYSGHSPLLPQQARSLDPQSYSLIHQLLSAEDLEPLGTPMLIEDGYAVTQAELFALLCRLADELLFRQIAWIKKLPFFCELSIKDYTCLLSSTWQELILLSSLTVYSKQIFGELADVTAKYSPSDEELHRFSDEGMEVIERLIYLYHKFHQLKVSNEEYACMKAINFLNQDIRGLTSASQLEQLNKRYWYICQDFTEYKYTHQPNRFPDLMMCLPEIRYIAGKMVNVPLEQLPLLFKVVLHSCKTSVGKE

Tests used:
mPer1 promoter = experiment: NHR-promoter luciferase screen, mPer1 promoter; assay type: cell-based, mouse; conditions: for Luc. act., normalized to lacZ / Normalized Luc. act., normalized to control: Per1 promoter reporter, co-transfected HR, with or without its ligand; for Normalized Luc. act., normalized to control: relative to control; for luciferase activity normalized to lacZ activity and to a control, mPer1: mPer1 promoter-luciferase, CV-1 cells, NHR +/- ligand, control = 1.00
Method in brief: (§1)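 CV-1 cells were co-transfected with 50 ng NHR (homodimer or NHR/RXR heterodimer), 100 ng promoter-luciferase construct and 50 ng LacZ. Luciferase was normalized to LacZ and to a no-NHR/no-ligand control.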

hCYP3A4 promoter = experiment: NHR-promoter luciferase screen, hCYP3A4 promoter; assay type: cell-based, human; conditions: for Luc. act., normalized to lacZ / Normalized Luc. act., normalized to control: CYP3A4 promoter, HR/ligand component; for hCYP3A4 promoter reporter activity: transcription factor +/- ligand, control = 1.00
Method in brief: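 CV-1 cells co-transfected with NHR homodimer or NHR/RXR heterodimer (pcDNA3.1, C-terminal V5H6 tag), promoter-luciferase construct and LacZ transfection control. Orphan receptors screened without ligand. Luciferase normalized to LacZ and to no-NHR/no-ligand control.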

mADRP promoter = experiment: NHR-promoter luciferase screen, mADRP promoter; assay type: cell-based, mouse; conditions: for Luc. act., normalized to lacZ / Normalized Luc. act., normalized to control: ADRP promoter, HR/ligand component; for mADRP promoter reporter activity: transcription factor +/- ligand, control = 1.00
Method in brief: as §1

MCP-1 promoter = experiment: NHR-promoter luciferase screen, MCP-1 promoter; assay type: cell-based; conditions: for Normalized Luc. act., normalized to control / Luc. act., normalized to lacZ: MCP-1 promoter reporter; for Normalized Luc. act., normalized to control: HR without or with its ligand, relative to control; for Luc. act., normalized to lacZ: hormone receptor (HR) without or with its ligand; for mMCP-1 promoter reporter activity: transcription factor +/- ligand, control = 1.00
Method in brief: as §1

mABCA1 promoter = experiment: NHR-promoter luciferase screen, mABCA1 promoter; assay type: cell-based, mouse; conditions: for Luc. act., normalized to lacZ / Normalized Luc. act., normalized to control: ABCA1 promoter, hormone receptor with or without its ligand; for Normalized Luc. act., normalized to control: relative to control; for mABCA1 promoter reporter activity: transcription factor +/- ligand, control = 1.00
Method in brief: as §1

mUCP3 promoter = experiment: NHR-promoter luciferase screen, mUCP3 promoter; assay type: cell-based, mouse; conditions: for Normalized Luc. act., normalized to control / Luc. act., normalized to lacZ: mUCP3 promoter reporter; for Normalized Luc. act., normalized to control: HR without or with its ligand, relative to control; for Luc. act., normalized to lacZ: hormone receptor (HR) without or with its ligand; for mUCP3 promoter reporter activity: transcription factor +/- ligand, control = 1.00
Method in brief: as §1

| Molecule | Luc. act., normalized to lacZ (mPer1 promoter) | Normalized Luc. act., normalized to control (mPer1 promoter) | luciferase activity normalized to lacZ activity and to a control, mPer1 (mPer1 promoter) | Luc. act., normalized to lacZ (hCYP3A4 promoter) | Normalized Luc. act., normalized to control (hCYP3A4 promoter) | hCYP3A4 promoter reporter activity (hCYP3A4 promoter) | Luc. act., normalized to lacZ (mADRP promoter) | Normalized Luc. act., normalized to control (mADRP promoter) | mADRP promoter reporter activity (mADRP promoter) | Normalized Luc. act., normalized to control (MCP-1 promoter) | Luc. act., normalized to lacZ (MCP-1 promoter) | mMCP-1 promoter reporter activity (MCP-1 promoter) | Luc. act., normalized to lacZ (mABCA1 promoter) | Normalized Luc. act., normalized to control (mABCA1 promoter) | mABCA1 promoter reporter activity (mABCA1 promoter) | Normalized Luc. act., normalized to control (mUCP3 promoter) | Luc. act., normalized to lacZ (mUCP3 promoter) | mUCP3 promoter reporter activity (mUCP3 promoter) |
| --- | --- | --- | --- | --- | --- | --- | --- | --- | --- | --- | --- | --- | --- | --- | --- | --- | --- | --- |
| B1 | 139.6 | 1.0 | 0.97 | 4.2 | 0.9 | 0.93 | 351.6 | 0.7 | 0.71 | 0.5 | 51.9 | 0.48 | 6.8 | 1.2 | 1.21 | 1.2 | 0.81 | 1.19 |
| B2 | 153.4 | 1.1 | 1.07 | 5.7 | 1.3 | 1.29 | 419.9 | 0.8 | 0.84 | 1.0 | 108.9 | 1.02 | 5.8 | 1.0 | 1.04 | 1.3 | 0.89 | 1.31 |
| B3 | 130.3 | 0.9 | 0.90 | 4.6 | 1.0 | 1.04 | 421.4 | 0.8 | 0.85 | 1.2 | 130.4 | 1.22 | 6.8 | 1.2 | 1.21 | 1.1 | 0.77 | 1.15 |
| B4 | 151.9 | 1.1 | 1.06 | 4.5 | 1.0 | 1.02 | 523.7 | 1.1 | 1.05 | 0.0 |  | 0.00 | 7.6 | 1.4 | 1.36 | 1.0 | 0.66 | 0.98 |
